Source: paper PMC6742648

Biological target: stabilized pre-fusion RSV F glycoprotein (DS-Cav1) (respiratory syncytial virus (strain not stated)) (UniProt P03420)
Assay: crystal structure; RB1 Fab with DS-Cav1, complex purified by SEC; crystals in 100 mM Tris pH 8.5, 12% PEG 8000, 200 mM ammonium sulfate; 3.4 A

## stabilized pre-fusion RSV F glycoprotein (DS-Cav1) (from UniProt P03420 137-513) (natural protein)
  stoichiometry N: 3
